From publication PMC4909763 (Frontiers in Plant Science, 2016)

B1: plant-made recombinant human butyrylcholinesterase, apoplast-targeted (prBChE) (enzyme, UniProt P06276 29-602, looked up)
chain: EDDIIIATKNGKVRGMNLTVFGGTVTAFLGIPYAQPPLGRLRFKKPQSLTKWSDIWNATKYANSCCQNIDQSFPGFHGSEMWNPNTDLSEDCLYLNVWIPAPKPKNATVLIWIYGGGFQTGTSSLHVYDGKFLARVERVIVVSMNYRVGALGFLALPGNPEAPGNMGLFDQQLALQWVQKNIAAFGGNPKSVTLFGESAGAASVSLHLLSPGSHSLFTRAILQSGSFNAPWAVTSLYEARNRTLNLAKLTGCSRENETEIIKCLRNKDPQEILLNEAFVVPYGTPLSVNFGPTVDGDFLTDMPDILLELGQFKKTQILVGVNKDEGTAFLVYGAPGFSKDNNSIITRKEFQEGLKIFFPGVSEFGKESILFHYTDWVDDQRPENYREALGDVVGDYNFICPALEFTKKFSEWGNNAFFYYFEHRSSKLPWPEWMGVMHGYEIEFVFGLPLERRDNYTKAEEILSRSIVKRWANFAKYGNPNETQNNSTSWPVFKSTEQKYLTLNTESTRIMTKLRAQQCRFWTSFFPKVLEMTGNIDEAEWEWKAGFHRWNNYMMDWKNQFNDYTSKKESCVGL
notes: also called prBuChE; prBChE-AWF
B2: ER-retained plant-made recombinant human butyrylcholinesterase (prBChE-ER) (enzyme)
chain: EDDIIIATKNGKVRGMNLTVFGGTVTAFLGIPYAQPPLGRLRFKKPQSLTKWSDIWNATKYANSCCQNIDQSFPGFHGSEMWNPNTDLSEDCLYLNVWIPAPKPKNATVLIWIYGGGFQTGTSSLHVYDGKFLARVERVIVVSMNYRVGALGFLALPGNPEAPGNMGLFDQQLALQWVQKNIAAFGGNPKSVTLFGESAGAASVSLHLLSPGSHSLFTRAILQSGSFNAPWAVTSLYEARNRTLNLAKLTGCSRENETEIIKCLRNKDPQEILLNEAFVVPYGTPLSVNFGPTVDGDFLTDMPDILLELGQFKKTQILVGVNKDEGTAFLVYGAPGFSKDNNSIITRKEFQEGLKIFFPGVSEFGKESILFHYTDWVDDQRPENYREALGDVVGDYNFICPALEFTKKFSEWGNNAFFYYFEHRSSKLPWPEWMGVMHGYEIEFVFGLPLERRDNYTKAEEILSRSIVKRWANFAKYGNPNETQNNSTSWPVFKSTEQKYLTLNTESTRIMTKLRAQQCRFWTSFFPKVLEMTGNIDEAEWEWKAGFHRWNNYMMDWKNQFNDYTSKKESCVGLKDEL
notes: also called prBChE+KDEL; rBChE+KDEL

Target: the molecule itself
Assay: native gel or EMSA

Protein | stoichiometry N
B1 | 4
B2 | 4
